The target in this assay is HLA-A*02:01 (Homo sapiens, UniProt P04439, D140Y/D185E/D98H/E176V/E277Q/G131W/G231S/I119V/I121R/I166T/I218V/L300P/L318F/N151K/N90K/P208A/P217A/Q86G/Q94H/R138H/R169H/T345S). As to the kind of experiment: MHC binding assay (UV-ligand exchange, beta2m ELISA). Particulars: binding to HLA-A*02:01 ranged by peptide exchange yield (UV-ligand exchange, β2m ELISA). The source says:
Candidate peptides for T cell based therapies according to the present invention were further tested for their MHC binding capacity (affinity). The individual peptide-MHC complexes were produced by UV-ligand exchange, where a UV-sensitive peptide is cleaved upon UV-irradiation, and exchanged with the peptide of interest as analyzed. Only peptide candidates that can effectively bind and stabilize the peptide-receptive MHC molecules prevent dissociation of the MHC complexes. To determine the yield of the exchange reaction, an ELISA was performed based on the detection of the light chain (β2m) of stabilized MHC complexes. The assay was performed as generally described in Rodenko et al. (Rodenko et al., 2006).
96 well MAXISorp plates (NUNC) were coated over night with 2 ug/ml streptavidin in PBS at room temperature, washed 4× and blocked for 1 h at 37° C. in 2% BSA containing blocking buffer. […] Peptide-MHC monomers of the UV-exchange reaction were diluted 100 fold in blocking buffer. Samples were incubated for 1 h at 37° C., washed four times, incubated with 2 ug/ml HRP conjugated anti-β2m for 1 h at 37° C., washed again and detected with TMB solution that is stopped with […]. Absorption was measured at 450 nm. Candidate peptides that show a high exchange yield (preferably higher than 50%, most preferred higher than 75%) are generally preferred for a generation and production of antibodies or fragments thereof, and/or T cell receptors or fragments thereof, as they show sufficient avidity to the MHC molecules and prevent dissociation of the MHC complexes.
Regarding “137 (TLVLTLPTV; listed as Homo sapiens) [compound 137]”, the Peptide exchange entry is ““++++” (≥75% = ++++)”.
For the substance “138 (YQYPRAILSV; listed as Homo sapiens) [compound 138]”, the Peptide exchange result is ““+++” (≥50 = +++)”.
In the case of “139 (SVMEVNSGIYRV; listed as Homo sapiens) [compound 139]”, the Peptide exchange result is reported as ““+++” (≥50 = +++)”.
Take “140 (YMDAPKAAL; listed as Homo sapiens) [compound 140]”: the Peptide exchange entry is listed as ““++” (≥20% = ++)”.
Consider “142 (FLFATPVFI; listed as Homo sapiens) [compound 142]”, for which the Peptide exchange result is listed as ““+++” (≥50 = +++)”.
Take “144 (YIMEPSIFNTL; listed as Homo sapiens) [compound 144]”: the Peptide exchange entry was ““+++” (≥50 = +++)”.
For the substance “145 (FLATSGTLAGI; listed as Homo sapiens) [compound 145]”, the Peptide exchange entry is reported as ““++” (≥20% = ++)”.
Take “146 (SLATAGDGLIEL; listed as Homo sapiens) [compound 146]”: the Peptide exchange result is ““++” (≥20% = ++)”.
As to “147 (SLLEAVSFL; listed as Homo sapiens) [compound 147]”, the Peptide exchange result is ““+++” (≥50 = +++)”.
Turning to “148 (ALNPEIVSV; listed as Homo sapiens) [compound 148]”, the Peptide exchange result is on record as ““++” (≥20% = ++)”.
For “149 (NLLELFVQL; listed as Homo sapiens) [compound 149]”, the Peptide exchange result was ““+++” (≥50 = +++)”.
For the substance “151 (KILQQLVTL; listed as Homo sapiens) [compound 151]”, the Peptide exchange result was ““+++” (≥50 = +++)”.
Regarding “152 (ILFEDIFDV; listed as Homo sapiens) [compound 152]”, the Peptide exchange result is ““+++” (≥50 = +++)”.
Take “153 (FLIANVLYL; listed as Homo sapiens) [compound 153]”: the Peptide exchange entry is reported as ““+” (≥10% = +)”.
On to “154 (ALDDGTPAL; listed as Homo sapiens) [compound 154]”, for which the Peptide exchange result is given as ““++” (≥20% = ++)”.
“155 (RVANLHFPSV; listed as Homo sapiens) [compound 155]”: the Peptide exchange entry is ““+++” (≥50 = +++)”.
Take “157 (SLNDEVPEV; listed as Homo sapiens) [compound 157]”: the Peptide exchange result is reported as ““++” (≥20% = ++)”.
“158 (KLFDVDEDGYI; listed as Homo sapiens) [compound 158]”: the Peptide exchange result is listed as ““+++” (≥50 = +++)”.
For the substance “159 (GLVGNPLPSV; listed as Homo sapiens) [compound 159]”, the Peptide exchange result was ““++++” (≥75% = ++++)”.
On to “160 (FLFDEEIEQI; listed as Homo sapiens) [compound 160]”, for which the Peptide exchange result is given as ““+++” (≥50 = +++)”.
For the substance “161 (ALLEGVNTV; listed as Homo sapiens) [compound 161]”, the Peptide exchange result is ““+++” (≥50 = +++)”.
For the substance “162 (YQQAQVPSV; listed as Homo sapiens) [compound 162]”, the Peptide exchange entry is on record as ““+++” (≥50 = +++)”.
With “163 (ALDEMGDLLQL; listed as Homo sapiens) [compound 163]” the entry was ““+++” (≥50 = +++)”; with “164 (ALLPQPKNLTV; listed as Homo sapiens) [compound 164]”, ““+++” (≥50 = +++)”; with “165 (SLLDEIRAV; listed as Homo sapiens) [compound 165]”, ““+++” (≥50 = +++)”.
Next, “167 (KVLEVTEEFGV; listed as Homo sapiens) [compound 167]”: ““+++” (≥50 = +++)”.
As for “168 (KILDADIQL; listed as Homo sapiens) [compound 168]”, the Peptide exchange entry is ““++++” (≥75% = ++++)”.
Regarding “169 (NLPEYLPFV; listed as Homo sapiens) [compound 169]”, the Peptide exchange result is listed as ““+++” (≥50 = +++)”.
Consider “170 (RLQETLSAA; listed as Homo sapiens) [compound 170]”, for which the Peptide exchange result is on record as ““+++” (≥50 = +++)”.
As to “171 (LLLPLQILL; listed as Homo sapiens) [compound 171]”, the Peptide exchange result is reported as ““+++” (≥50 = +++)”.
Take “172 (VLYSYTIITV; listed as Homo sapiens) [compound 172]”: the Peptide exchange entry is listed as ““++” (≥20% = ++)”.
In the case of “173 (LLDSASAGLYL; listed as Homo sapiens) [compound 173]”, the Peptide exchange entry is recorded as ““+++” (≥50 = +++)”.
“174 (ALAQYLITA; listed as Homo sapiens) [compound 174]”: the Peptide exchange entry is ““+++” (≥50 = +++)”.
As for “175 (YLFENISQL; listed as Homo sapiens) [compound 175]”, the Peptide exchange entry is ““+++” (≥50 = +++)”.
Regarding “176 (YLMEGSYNKVFL; listed as Homo sapiens) [compound 176]”, the Peptide exchange result is given as ““++” (≥20% = ++)”.
In the case of “177 (YLLPEEYTSTL; listed as Homo sapiens) [compound 177]”, the Peptide exchange entry was ““++++” (≥75% = ++++)”.
As to “178 (ALTEIAFVV; listed as Homo sapiens) [compound 178]”, the Peptide exchange entry was ““++++” (≥75% = ++++)”.
In the case of “179 (KVLNELYTV; listed as Homo sapiens) [compound 179]”, the Peptide exchange entry was ““+++” (≥50 = +++)”.
With “180 (FQIDPHSGLVTV; listed as Homo sapiens) [compound 180]”, the Peptide exchange entry was ““++” (≥20% = ++)”.
On to “181 (LLWAGTAFQV; listed as Homo sapiens) [compound 181]”, for which the Peptide exchange result was ““+++” (≥50 = +++)”.
Next, “182 (MLLEAPGIFL; listed as Homo sapiens) [compound 182]”: ““+++” (≥50 = +++)”; “183 (FGLDLVTEL; listed as Homo sapiens) [compound 183]”: ““+++” (≥50 = +++)”.
Consider “184 (YLMDINGKMWL; listed as Homo sapiens) [compound 184]”, for which the Peptide exchange result was ““+++” (≥50 = +++)”.
With “185 (FLIDDKGYTL; listed as Homo sapiens) [compound 185]”, the Peptide exchange result is recorded as ““++” (≥20% = ++)”.
On to “186 (TLFFQQNAL; listed as Homo sapiens) [compound 186]”, for which the Peptide exchange result is on record as ““++” (≥20% = ++)”.
With “187 (RQISIRGIVGV; listed as Homo sapiens) [compound 187]”, the Peptide exchange result was ““+++” (≥50 = +++)”.
Take “188 (GLFPVTPEAV; listed as Homo sapiens) [compound 188]”: the Peptide exchange result is ““+++” (≥50 = +++)”.
“189 (ALQRKLPYV; listed as Homo sapiens) [compound 189]”: the Peptide exchange entry is given as ““+++” (≥50 = +++)”.
“190 (FLSSLTETI; listed as Homo sapiens) [compound 190]”: the Peptide exchange entry was ““+++” (≥50 = +++)”.
Consider “191 (LLQEGQALEYV; listed as Homo sapiens) [compound 191]”, for which the Peptide exchange result is recorded as ““++” (≥20% = ++)”.
Take “192 (KMLDGASFTL; listed as Homo sapiens) [compound 192]”: the Peptide exchange entry is reported as ““+++” (≥50 = +++)”.
On to “193 (QLLDADGFLNV; listed as Homo sapiens) [compound 193]”, for which the Peptide exchange entry is reported as ““+++” (≥50 = +++)”.
On to “194 (ALPLFVITV; listed as Homo sapiens) [compound 194]”, for which the Peptide exchange result is reported as ““+++” (≥50 = +++)”.
For “195 (GLFADLLPRL; listed as Homo sapiens) [compound 195]”, the Peptide exchange result is recorded as ““+++” (≥50 = +++)”.
In the case of “196 (YLYSVEIKL; listed as Homo sapiens) [compound 196]”, the Peptide exchange entry is recorded as ““++++” (≥75% = ++++)”.
For “197 (ALGPEGGRV; listed as Homo sapiens) [compound 197]”, the Peptide exchange entry is ““++” (≥20% = ++)”.
“198 (KTINKVPTV; listed as Homo sapiens) [compound 198]”: the Peptide exchange result was ““+++” (≥50 = +++)”.
Next, “200 (LLFGSVQEV; listed as Homo sapiens) [compound 200]”: ““+++” (≥50 = +++)”; “201 (RLVDYLEGI; listed as Homo sapiens) [compound 201]”: ““+++” (≥50 = +++)”; “202 (ALLDQQGSRWTL; listed as Homo sapiens) [compound 202]”: ““+++” (≥50 = +++)”.
As to “204 (KIAENVEEV; listed as Homo sapiens) [compound 204]”, the Peptide exchange entry is ““++” (≥20% = ++)”.
Turning to “205 (SLYPGTETMGL; listed as Homo sapiens) [compound 205]”, the Peptide exchange entry is given as ““+++” (≥50 = +++)”.
For the substance “206 (VLQEGKLQKLAQL; listed as Homo sapiens) [compound 206]”, the Peptide exchange result was ““+++” (≥50 = +++)”.
“207 (GLTSTNAEV; listed as Homo sapiens) [compound 207]”: the Peptide exchange entry is listed as ““++” (≥20% = ++)”.
For the substance “208 (KISPVTFSV; listed as Homo sapiens) [compound 208]”, the Peptide exchange entry was ““+++” (≥50 = +++)”.
